# Data: patent publication US20240075137A1 (COMPUGEN, published 2024)
# B1: CHA.7.518.1.H4(S241P) (antibody, human IgG4 S228P, kappa, V domains shown)
# VH: QVQLVQSGAEVKKPGASVKVSCKASGYTFTDYNINWVRQAPGQGLEWMGYIYPYIGGSGYAQKFQGRVTMTRDTSTSTVYMELSSLRSEDTAVYYCAREDKTARNAMDYWGQGTLVTVSS
# VL: DIQMTQSPSSLSASVGDRVTITCRVSENIYSNLAWYQQKPGKAPKLLIYEATNLAEGVPSRFSGSGSGTDFTLTISSLQPEDFATYYCQHFWGTPYTFGQGTKLEIKR
# notes: humanized, human IgG4 with S241P; also called anti-PVRIG
# B2: DNAM1 Fc (Fc fusion, mouse (prefix m in FIG. 95D), UniProt Q8K4F0 19-254, looked up)
# fusion chain: EETLWDTTVRLSETMTLECVYPLTHNLTQVEWTKNTGTKTVSIAVYNPNHNMHIESNYLHRVHFLNSTVGFRNMSLSFYNASEADIGIYSCLFHAFPNGPWEKKIKVVWSDSFEIAAPSDSYLSAEPGQDVTLTCQLPRTWPVQQVIWEKVQPHQVDILASCNLSQETRYTSKYLRQTRSNCSQGSMKSILIIPNAMAADSGLYRCRSEAITGKNKSFVIRLIITDGGTNKHFILP
# notes: receptor part of an Fc fusion; also called mDNAM1-mFc
# B3: BM26 hIgG4 (antibody, V domains shown)
# VH: EVQLQQSGPELVKPGSSVKMSCKASGYTFSSYVMHWVKQKPGQGLEWIGYIDPYNDGAKYNEKFKGKATLTSDKSSSTAYMELSSLTSEDSAVYYCARGGPYGWYFDVWGAGTTVTVSS
# VL: DIQMTQSPASLSASVGETVTITCRASEHIYSYLSWYQQKQGKSPQLLVYNAKTLAEGVPSRFSGSGSGTQFSLKINSLQPEDFGTYYCQHHFGSPLTFGAGTTLELKR
# notes: benchmark anti-human TIGIT antibody, human IgG4 with S241P; also called BM26-H4; WO2016/028656A1 Clone 3106 as hIgG4
# Key:
# human PVRIG on cells [1] = biological target: T1, human PVRIG on cells (human, UniProt Q6DKI7 1-326); assay: FACS KD, cell type 'Jurkat' (table beside the curve, column 'FACS KD (nM)')
# T1 construct: whole, on cells; over-expressed on HEK cells or endogenous on Jurkat and CD8 T cells; also called hPVRIG; HEK hPVRIG cells
# T1 sequence (looked up): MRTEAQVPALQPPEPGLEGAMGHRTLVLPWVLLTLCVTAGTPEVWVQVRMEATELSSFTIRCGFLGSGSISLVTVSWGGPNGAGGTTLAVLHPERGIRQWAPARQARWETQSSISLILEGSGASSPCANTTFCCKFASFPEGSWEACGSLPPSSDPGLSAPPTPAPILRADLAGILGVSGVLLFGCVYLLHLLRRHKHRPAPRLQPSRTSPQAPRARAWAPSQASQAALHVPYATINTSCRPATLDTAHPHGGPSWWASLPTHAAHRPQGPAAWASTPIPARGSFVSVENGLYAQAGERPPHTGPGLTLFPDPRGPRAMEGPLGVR
# human PVRIG on cells [2] = biological target: T1, human PVRIG on cells; assay: FACS competition: PVRL2 mFc binding to HEK hPVRIG cells
# Experimental: Cells were washed twice in PBS for acquisition using a FACS Canto II. Data was analyzed using FlowJo, Excel and Prism.
# human PVRIG on cells [3] = biological target: T1, human PVRIG on cells; assay: FACS KD, cell type 'HEK293 hPVRIG' (table beside the curve, column 'FACS KD (nM)')
# PVRIG Fc [4] = biological target: T2, PVRIG Fc (UniProt Q6DKI7 41-171, limits assumed, biotinylated (Example 5)); assay: FACS blocking assay: binding of PVRIG Fc to HEK cells that endogenously express PVRL2, with the antibody titrated
# T2 construct: also called biotinylated PVRIG Fc protein; PVRIG-Fc-fusion protein
# T2 sequence (looked up): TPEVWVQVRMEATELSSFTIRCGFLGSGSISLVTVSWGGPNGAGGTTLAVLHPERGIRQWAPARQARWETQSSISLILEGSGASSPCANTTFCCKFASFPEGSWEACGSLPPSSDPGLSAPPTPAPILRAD
# Experimental: (§1) Cells were washed twice in PBS for acquisition using a FACS Canto II. Data was analyzed using FlowJo, Excel (Microsoft), and Prism.
# human PVRIG on cells [5] = biological target: T1, human PVRIG on cells; assay: FACS on Jurkat cells pre-incubated with CHA.7.518.1 (unconjugated)
# Text: (§2) Data was acquired using a FACS Canto II and analysed using FlowJo, Excel, and Prism.
# human PVRIG on cells [6] = biological target: T1, human PVRIG on cells; assay: FACS on Jurkat cells pre-incubated with CHA.7.538.1.2 (unconjugated)
# Text: as §2
# [7] = biological target: T3, cynomolgus PVRIG on cells (cynomolgus, UniProt A0A2K5WVV8 41-322); assay: FACS KD, cell type 'HEK293 cPVRIG' (table beside the curve, column 'FACS KD (nM)')
# T3 construct: whole, on cells; also called cPVRIG; expi cPVRIG cells
# T3 sequence: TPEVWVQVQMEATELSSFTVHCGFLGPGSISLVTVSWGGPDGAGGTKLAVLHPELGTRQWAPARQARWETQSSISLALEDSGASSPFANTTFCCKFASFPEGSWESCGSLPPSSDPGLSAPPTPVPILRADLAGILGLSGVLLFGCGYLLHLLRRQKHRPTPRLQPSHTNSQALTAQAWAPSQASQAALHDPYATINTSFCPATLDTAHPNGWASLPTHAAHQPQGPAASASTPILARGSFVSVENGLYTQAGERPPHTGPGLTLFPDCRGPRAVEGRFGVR
# human PVRIG on cells [8] = biological target: T1, human PVRIG on cells; assay: FACS on Jurkat cells pre-incubated with Isotype (unconjugated)
# Text: as §2
# human PVRIG on cells [9] = biological target: T1, human PVRIG on cells; assay: flow cytometry titration, HEK hPVRIG cells
# Experimental: These cells were cultured in DMEM (Gibco)+10% fetal calf serum (Gibco)+glutamax (Gibco). For the HEK hPVRIG over-expressing cells, 0.5 ug/ml puromycin (Gibco) was also added to the media for positive selection. For FACS analysis, all cell lines were harvested in log phase growth and 50,000-100,000 cells per well were seeded in 96 well plates. […] The titration series was conducted as 3 fold serial dilutions. […] Data was acquired using a FACS Canto II (BD Biosciences), FACS LSR Fortessa X-20 (BD Biosciences), or IntelliCyt (IntelliCyt Corporation) and analyzed using FlowJo (Treestar) and Prism (Graphpad) software.
# [10] = biological target: T3, cynomolgus PVRIG on cells; assay: flow cytometry titration, expi cPVRIG cells
# Experimental: These cells were cultured in DMEM+10% fetal calf serum+glutamax. expi cPVRIG transient over-expressing cells were generated by electroporating cPVRIG DNA into parental expi cells using the Neon transfection system. For FACS analysis, expi cPVRIG cells were used between 1-3 days-post transfection. Parental expi cells were harvested from log growth phase. 50,000-100,000 cells of per well of each type were seeded in 96 well plates. […] The titration series were conducted as a 3-fold dilution series. […] Data was acquired using a FACS Canto II or IntelliCyte and analyzed using FlowJo and Prism software.
# PVRIG Fc [11] = biological target: T2, PVRIG Fc; assay: FACS competition: biotinylated PVRIG Fc (33 nM) binding to HEK cells with endogenous PVRL2
# Experimental: as §1
# mPVRL2 HIS = biological target: T4, mPVRL2 HIS (mouse, UniProt P32507 32-351, limits assumed); assay: ELISA: soluble PVRL2 HIS titrated on plates coated with mDNAM1-mFc
# T4 construct: also called mPVRL2 protein; Soluble PVRL2 HIS protein
# T4 sequence (looked up): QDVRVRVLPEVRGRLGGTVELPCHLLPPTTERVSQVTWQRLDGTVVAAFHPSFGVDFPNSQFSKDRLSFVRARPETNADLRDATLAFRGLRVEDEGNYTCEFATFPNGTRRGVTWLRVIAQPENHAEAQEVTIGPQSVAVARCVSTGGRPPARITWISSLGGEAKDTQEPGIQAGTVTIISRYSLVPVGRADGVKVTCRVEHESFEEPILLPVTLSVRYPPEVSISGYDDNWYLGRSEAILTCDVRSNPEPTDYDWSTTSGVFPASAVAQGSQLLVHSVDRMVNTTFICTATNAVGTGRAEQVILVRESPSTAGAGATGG
# Cyno TIGIT-His [12] = biological target: T5, Cyno TIGIT-His; assay: SPR (ProteOn), Cyno TIGIT-His
# T5 construct: also called cyno TIGIT monomer (prepared in-house); C-terminal HIS-tagged cyno TIGIT ECD recombinant protein
# human TIGIT on cells [13] = biological target: T6, human TIGIT on cells (human, UniProt Q495A1 22-141); assay: FACS blocking of human PVR-m2aFc binding to human TIGIT OE Expi293 cells; binding site concentration; n=1
# T6 construct: also called Expi293 human TIGIT over-expressing cells
# T6 sequence: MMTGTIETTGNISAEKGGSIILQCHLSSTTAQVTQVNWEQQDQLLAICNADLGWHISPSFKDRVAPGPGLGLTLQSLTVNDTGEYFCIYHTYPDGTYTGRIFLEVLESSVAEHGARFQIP
# Mouse TIGIT-His = biological target: T7, Mouse TIGIT-His (mouse, UniProt P86176); assay: SPR (ProteOn), mAb captured, mouse TIGIT monomer injected; BM26 as hIgG4
# T7 construct: also called mouse TIGIT monomer (prepared in-house)
# T7 sequence (soluble monomer with His tag, looked up): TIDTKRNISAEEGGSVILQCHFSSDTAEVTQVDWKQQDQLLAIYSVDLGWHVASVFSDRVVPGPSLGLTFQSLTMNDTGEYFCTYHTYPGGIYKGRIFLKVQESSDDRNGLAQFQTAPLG
# human TIGIT on cells [14] = biological target: T6, human TIGIT on cells; assay: FACS titration of AF647-labelled mAb on human effector memory CD8+ T cells, Donor 322
# [15] = biological target: T8, human TIGIT ECD with C-terminal polyhistidine tag (human, UniProt Q495A1 22-141); assay: SPR (ProteOn), mAb captured, human TIGIT injected; BM26 as hIgG4
# T8 construct: in-house or Sino Biological; also called hTIGIT-HIS; human TIGIT-HIS
# T8 sequence: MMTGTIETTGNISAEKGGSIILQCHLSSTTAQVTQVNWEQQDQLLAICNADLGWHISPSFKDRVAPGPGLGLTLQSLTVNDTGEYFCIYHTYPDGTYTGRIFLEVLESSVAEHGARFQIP
# human TIGIT on cells [16] = biological target: T6, human TIGIT on cells; assay: FACS titration on human TIGIT OE Expi293 cells, binding site concentration; ± 95% CI; 'Fit: Good/Excellent'; panel of the lower row
# Experimental: (§3) AF647-labeled goat anti-human F(ab′) (Jackson Immunoresearch) was added to the cells to detect binding of anti-TIGIT antibodies.
# human TIGIT on cells [17] = biological target: T6, human TIGIT on cells; assay: FACS blocking: Expi293 human TIGIT cells pre-incubated with mAb, then human PVR-m2aFc; lower gMFI = more blocking
# cyno TIGIT on cells [18] = biological target: T9, cyno TIGIT on cells (cynomolgus macaque); assay: FACS titration of AF647-labelled mAb on cyno effector memory CD8+ T cells, Cyno Donor 1; isotype gMFI subtracted
# T9 construct: whole, on cells; also called Expi293 cyno TIGIT over-expressing cells
# [19] = biological target: T8, human TIGIT ECD with C-terminal …; assay: KinExA equilibrium, His-tagged human TIGIT, n = 2
# Experimental: (§4) KinExA equilibrium experiments were performed using a KinExA 3200 instrument (Sapidyne Instruments, Boise, ID, USA) at 22° C. Recombinant His-tagged human TIGIT was obtained from Sino Biologicals (Beijing, China) and reconstituted into 1×PBS. All antigen and antibody samples for KinExA analyses were prepared in degassed PBST buffer (PBS with 0.05% tween 20) with 100 ug/mL filtered BSA and 0.02% sodium azide. […] For each KinExA experiment, ˜20 lag of human TIGIT was diluted into 1 mL of 50 mM sodium carbonate, pH 9.2 which was added directly to 50 mg of azlactone beads (Ultralink Support, Thermo Scientific, Rockford, IL, USA) and rocked overnight at 4° C. After rocking, the beads were rinsed once with 1 M Tris buffer, pH 8.5, containing 10 mg/mL BSA and rocked for one hour at room temperature in the same buffer. Coupled beads were added to the bead reservoir in the KinExA instrument and diluted to ˜30 mL with 1×HBS-N (0.01 M Hepes, 0.15M NaCl, GE Healthcare) containing 0.02% sodium azide which was also the running buffer for the KinExA instrument. All antigen-coupled beads were used immediately after preparation.
# (§5) The volume flowed through the bead pack for each equilibrated sample for all experiments ranged from 4 mL to 11 mL at a flow rate of 0.25 mL/min.
# cyno TIGIT on cells [20] = biological target: T9, cyno TIGIT on cells; assay: FACS titration on cyno TIGIT OE Expi293 cells, binding site concentration; ± 95% CI; 'Fit: Excellent'; panel of the upper row
# Experimental: (§6) AF647-labeled goat anti-human F(ab′) (Jackson Immunoresearch) was added to the cells to detect binding of anti-TIGIT antibodies. The gMFI of the anti-TIGIT antibodies bound to the cyno TIGIT over-expressing Expi293 cells (black line), and the parental Expi293 cells (grey line) are shown.
# cyno TIGIT on cells [21] = biological target: T9, cyno TIGIT on cells; assay: FACS titration on cyno TIGIT OE Expi293 cells, binding site concentration; ± 95% CI; 'Fit: Good'; panel of the lower row
# Experimental: as §6
# [22] = biological target: T8, human TIGIT ECD with C-terminal …; assay: KinExA equilibrium, His-tagged human TIGIT, n = 1
# Experimental: as §4, §5
# cyno TIGIT on cells [23] = biological target: T9, cyno TIGIT on cells; assay: FACS titration of AF647-labelled mAb on cyno effector memory CD8+ T cells, Cyno Donor 3; isotype gMFI subtracted
# [24] = biological target: T8, human TIGIT ECD with C-terminal …; assay: SPR (ProteOn), Human TIGIT-His
# human TIGIT on cells [25] = biological target: T6, human TIGIT on cells; assay: FACS blocking of human PVR-m2aFc binding to human TIGIT OE Expi293 cells; binding site concentration; n=2
# human TIGIT on cells [26] = biological target: T6, human TIGIT on cells; assay: FACS titration of AF647-labelled mAb on human effector memory CD8+ T cells, Donor 321
# human TIGIT on cells [27] = biological target: T6, human TIGIT on cells; assay: FACS titration on human TIGIT OE Expi293 cells, binding site concentration; ± 95% CI; 'Fit: Good/Excellent'; panel of the upper row
# Experimental: as §3
# Cyno TIGIT-His [28] = biological target: T5, Cyno TIGIT-His; assay: SPR (ProteOn), mAb captured, cyno TIGIT monomer injected; kd of this row held constant; BM26 as hIgG4
# human TIGIT on cells [29] = biological target: T6, human TIGIT on cells; assay: FACS titration of AF647-labelled mAb on human effector memory CD8+ T cells, Donor 334
# T5 sequence (ECD with C-terminal His tag, as listed by the source): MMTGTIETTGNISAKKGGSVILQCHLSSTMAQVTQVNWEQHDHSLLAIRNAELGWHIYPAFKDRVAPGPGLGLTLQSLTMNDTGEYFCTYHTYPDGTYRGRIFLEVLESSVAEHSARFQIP
binder,measurement,setting,value
B1,Kd,human PVRIG on cells [1],0.15 nM
same,IC50,human PVRIG on cells [2],1.8 nM
same,Kd,human PVRIG on cells [3],0.298 nM
same,IC50 (read off the curve),PVRIG Fc [4],~6 nM
same,% binding relative to maximum signal,human PVRIG on cells [5],14%
same,% binding relative to maximum signal,human PVRIG on cells [6],7%
same,Kd,[7],0.248 nM
same,% binding relative to maximum signal,human PVRIG on cells [8],100%
same,Kd,human PVRIG on cells [9],0.29 nM
same,Kd,[10],0.24 nM
same,IC50,PVRIG Fc [11],15 nM
B2,binding result,mPVRL2 HIS,binds
B3,Kd,Cyno TIGIT-His [12],0.0035 nM
same,IC50,human TIGIT on cells [13],0.45 nM
same,binding result,Mouse TIGIT-His,no binding (tested: 92.9 nM mouse TIGIT)
same,Kd,human TIGIT on cells [14],1.4 nM
same,Kd,[15],0.0241 nM
same,Kd,human TIGIT on cells [16],0.74 nM
same,gMFI of bound PVR-m2aFc at 266 pM mAb,human TIGIT on cells [17],719
same,gMFI of bound PVR-m2aFc at 1.3 nM mAb,human TIGIT on cells [17],401
same,gMFI of bound PVR-m2aFc at 6.7 nM mAb,human TIGIT on cells [17],234
same,Kd,cyno TIGIT on cells [18],4.6 nM
same,Kd,[19],0.0112 nM
same,Kd,cyno TIGIT on cells [20],0.69 nM
same,Kd,cyno TIGIT on cells [21],1.12 nM
same,Kd,[22],0.0082 nM
same,Kd,cyno TIGIT on cells [23],7.5 nM
same,Kd,[24],0.004 nM
same,IC50,human TIGIT on cells [25],0.26 nM
same,Kd,human TIGIT on cells [26],0.93 nM
same,Kd,human TIGIT on cells [27],0.44 nM
same,Kd,Cyno TIGIT-His [28],0.00125 nM
same,Kd,human TIGIT on cells [29],0.81 nM
